# From paper PMC9667317
# Tests used:
# Settings in all cases: other: capillary electrophoresis
# [1] = target: WT Cu, Zn superoxide dismutase-1 (SOD1), recombinant human (UniProt P00441); test: capillary electrophoresis; both homodimers apo (metal-free, disulfide intact), mixed at 15 μM dimer each ([SOD1]total = 30 μM), followed over time; 10 mM potassium phosphate pH 7.4, CE at 22 °C, storage at 15 °C; KHet assumed from the fit extrapolated to t = 5000 min
# [2] = target: WT Cu, Zn superoxide dismutase-1 (SOD1), recombinant human (UniProt P00441); test: capillary electrophoresis; binder (first named) as 4Zn-SOD1, target (second named, WT or TD) as apo-SOD1; 15 μM dimer each ([SOD1]total = 30 μM), followed over time; 10 mM potassium phosphate pH 7.4, CE at 22 °C, storage at 15 °C; KHet assumed from the fit extrapolated to t = 5000 min
# [3] = target: WT Cu, Zn superoxide dismutase-1 (SOD1), recombinant human (UniProt P00441); test: capillary electrophoresis; both homodimers as 4Zn-SOD1; 15 μM dimer each ([SOD1]total = 30 μM), followed over time; 10 mM potassium phosphate pH 7.4, CE at 22 °C, storage at 15 °C; KHet assumed from the fit extrapolated to t = 5000 min
# [4] = target: WT Cu, Zn superoxide dismutase-1 (SOD1), recombinant human (UniProt P00441); test: capillary electrophoresis; binder (first named) as apo-SOD1, target (second named, WT or TD) as 4Zn-SOD1; 15 μM dimer each ([SOD1]total = 30 μM), followed over time; 10 mM potassium phosphate pH 7.4, CE at 22 °C, storage at 15 °C; KHet assumed from the fit extrapolated to t = 5000 min
# triply deamidated SOD1 (modeled with N26D/N131D/N139D substitutions), recombinant human, sequence (chain, as listed by the source N26D N131D N139D): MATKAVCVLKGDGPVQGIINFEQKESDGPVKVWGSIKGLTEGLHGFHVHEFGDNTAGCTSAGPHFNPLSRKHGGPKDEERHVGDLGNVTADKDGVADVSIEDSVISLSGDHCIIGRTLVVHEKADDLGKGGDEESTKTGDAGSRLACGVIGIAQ
# WT Cu, Zn superoxide dismutase-1 (SOD1), recombinant human, sequence (P00441 whole entry): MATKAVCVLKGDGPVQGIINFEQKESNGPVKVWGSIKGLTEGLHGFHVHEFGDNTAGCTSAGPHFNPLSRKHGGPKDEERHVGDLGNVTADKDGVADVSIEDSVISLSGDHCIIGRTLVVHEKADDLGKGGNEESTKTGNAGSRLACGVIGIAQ
substance,measurement,setting,value
"triply deamidated SOD1 (modeled with N26D/N131D/N139D substitutions), recombinant human",t30% (time to reach 30% heterodimer),[1],85.8 min
same,t30% (time to reach 30% heterodimer),[2],297 min
same,t30% (time to reach 30% heterodimer),[3],339 min
same,t30% (time to reach 30% heterodimer),[4],188 min
